Data set [1] addresses T1, PfSir2A (Plasmodium falciparum) (UniProt Q8IE47).
T1 sequence: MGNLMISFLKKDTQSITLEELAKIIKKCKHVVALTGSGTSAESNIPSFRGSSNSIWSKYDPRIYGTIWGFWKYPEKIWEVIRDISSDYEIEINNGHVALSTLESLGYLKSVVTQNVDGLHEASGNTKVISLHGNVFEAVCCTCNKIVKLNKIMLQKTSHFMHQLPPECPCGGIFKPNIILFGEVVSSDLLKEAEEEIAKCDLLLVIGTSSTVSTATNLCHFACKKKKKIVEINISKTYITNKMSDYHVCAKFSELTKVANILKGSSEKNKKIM
Description: EMSA. The note with it: room temperature.

Data set [2] has as its target T2, PfSir2A (Plasmodium falciparum, UniProt Q8IE47).
T2 sequence (Q8IE47 1-273): T1 sequence
Nature of the data set: HPLC deacetylation assay with H3K9Ac peptide. The format is biochemical.

In data set [3] the target is T2, PfSir2A. Description: HPLC demyristoylation assay with H3K9Myr peptide. The format is biochemical.
In data set [4] the target is T3, PfSir2A (Plasmodium falciparum, UniProt Q8IE47 1-273).
T3 sequence: T1 sequence
Nature of the data set: MST.

Molecule “601 nucleosome assembly sequence DNA, 147 bp” came in with a Kd in data set [1] ([…]) / MST buffer) of 4 µM.
As for `c1cncc(-c2c[nH]nn2)c1` [3-TYP], the IC50 against PfSir2A [2] is ~59.6 µM.
`CCCCCCCCCCCCCC(=O)O` [myristic acid] yielded an IC50 on PfSir2A [3] of 107 ± 15 µM.
The molecule `NC(=O)c1ccc[n+]([C@@H]2O[C@H](CO)[C@@H](O)[C@H]2O)c1` [nicotinamide riboside] came in with an IC50 against PfSir2A [2] of 155 ± 14.9 µM.
Regarding H3K9Ac dNuc (601-positioned nucleosome), the Kd in data set [1] (H3K9Ac on histone H3; […]) / MST buffer) is 1.4 µM.

B1: ssDNA (MST) (ssDNA)
DNA: GAAGTCGGGGATGGCAGAGGCAGTGCT
Turning to B1, the Kd in the data set with PfSir2A [4] is 0.138 µM.
